Assay results as given in US20250134956A1 (published 2025).
Positions count from the first letter of the chain named.

Legend:
[1] = target: T1, Kita-kyushu lung cancer antigen 1 (CT83, KKLC1, CXorf61) peptide on HLA-A*02 (human); experiment: binding, other
T1 peptide: KLVELEHTLL

[2] = target: T2, Kita-kyushu lung cancer antigen 1 (CT83, KKLC1, CXorf61) peptide on HLA-A*02 (human); experiment: binding, other
T2 peptide: RILVNLSMV

B1: TCR of SEQ ID NOs 12 and 13 (TCR, V domains shown)
Valpha: KQEVTQIPAALSVPEGENLVLNCSFTDSAIYNLQWFRQDPGKGLTSLLLIQSSQREQTSGRLNASLDKSSGRSTLYIAASQPGDSATYLCAVMEDSGYALNFGKGTSLLVTP
Vbeta: NAGVTQTPKFQVLKTGQSMTLQCAQDMNHEYMSWYRQDPGMGLRLIHYSVGAGITDKGEVPNGYNVSRLNKREFSLRLESAAPSQTSVYFCASSRTGYYGYTFGSGTRLTVV
**Q.** Does B1 bind [1]?
**A.** recognises

B2: TCR of SEQ ID NOs 20 and 21 (TCR, V domains shown)
Valpha: KQEVTQIPAALSVPEGENLVLNCSFTDSAIYNLQWFRQDPGKGLTSLLLIQSSQREQTSGRLNASLDKSSGRSTLYIAASQPGDSATYLCAVNELGRLYFGRGTQLTVWP
Vbeta: NAGVTQTPKFQVLKTGQSMTLQCAQDMNHEYMSWYRQDPGMGLRLIHYSVGAGITDQGEVPNGYNVSRSTTEDFPLRLLSAAPSQTSVYFCASSYSGGYTFGSGTRLTVV
**Q.** Does B2 bind [2]?
**A.** recognises

B3: TCR of SEQ ID NOs 10 and 11 (TCR, V domains shown)
Valpha: KQEVTQIPAALSVPEGENLVLNCSFTDSAIYNLQWFRQDPGKGLTSLLLIQSSQREQTSGRLNASLDKSSGRSTLYIAASQPGDSATYLCAVTTQGGSEKLVFGKGTKLTVNP
Vbeta: NAGVTQTPKFQVLKTGQSMTLQCAQDMNHEYMSWYRQDPGMGLRLIHYSVGAGITDQGEVPNGYNVSRSTTEDFPLRLLSAAPSQTSVYFCASSYSDRGYSPLHFGNGTRLTVT
**Q.** Does B3 bind [1]?
**A.** recognises

B4: TCR of SEQ ID NOs 14 and 15 (TCR, V domains shown)
Valpha: KQEVTQIPAALSVPEGENLVLNCSFTDSAIYNLQWFRQDPGKGLTSLLLIQSSQREQTSGRLNASLDKSSGRSTLYIAASQPGDSATYLCAVGGEETSGSRLTFGEGTQLTVNP
Vbeta: B3 Vbeta
**Q.** Does B4 bind [1]?
**A.** recognises

B5: TCR of SEQ ID NOs 16 and 17 (TCR, V domains shown)
Valpha: KQEVTQIPAALSVPEGENLVLNCSFTDSAIYNLQWFRQDPGKGLTSLLLIQSSQREQTSGRLNASLDKSSGRSTLYIAASQPGDSATYLCAVSGNTPLVFGKGTRLSVIA
Vbeta: NAGVTQTPKFRVLKTGQSMTLLCAQDMNHEYMYWYRQDPGMGLRLIHYSVGEGTTAKGEVPDGYNVSRLKKQNFLLGLESAAPSQTSVYFCASSYVGNTEAFFGQGTRLTVV
**Q.** Does B5 bind [2]?
**A.** recognises

B6: TCR of SEQ ID NOs 18 and 19 (TCR, V domains shown)
Valpha: B5 Valpha with V92P
Vbeta: B5 Vbeta with Y95F, V96L
**Q.** Does B6 bind [2]?
**A.** recognises
